Patent US20230381350A1 (PRECIRIX N V, published 2023)
Each block holds one binder with its values, some of them ahead of it.

Tests used:
[1] = molecular target: T1, human DPP IV recombinant protein (human, UniProt P27487 29-766); assay: ELISA, coated human DPP IV, HA-His6-tagged VHH extract, anti-HA detection
T1 construct: extracellular domain; Bought protein; also called Dipeptidyl amino-peptidase IV
Description: (§1) The day before measurement, 0.1 μg recombinant protein at a concentration of 1 μg/mL in 100 mM NaHCO₃, pH 8.2 was coated in a 96-well ELISA plate (Nunc MaxiSorp). Per VHH clone also a blank coated well was foreseen (only buffer). The wells were overcoated with protein-free T20 (PBS) blocking buffer (Pierce). After washing with PBS, pH7.4, 0.05% Tween, VHH-containing bacterial freeze-thaw extract was added to every well. Binding of HA-His₆-tagged VHHs was detected by using mouse anti-HA.11 epitope tag (clone 16B12, Biolegend) as the primary Ab and goat anti-mouse IgG (whole molecule) alkaline phosphatase conjugate (Sigma-Aldrich) as the secondary Ab, with thorough washing with PBS, pH 7.4, 0.05% Tween in between. Signals were developed using phosphatase substrate (Sigma-Aldrich) in AP blot buffer (100 mM NaCl, 50 mM MgCl₂, 100 mM Tris, pH 9.5). The absorbance was determined at 405 nm using an absorbance microplate reader (Molecular Devices). Per clone the ratio was determined between the absorbance in the antigen-coated well versus the well without antigen.

[2] = molecular target: T2, human FAP recombinant protein (human, UniProt Q12884 26-760); assay: ELISA, coated human FAP recombinant protein, HA-His6-tagged VHH extract, anti-HA detection
T2 construct: The protein was biotinylated with sulfo-NHS-SS-biotin for bio-layer interferometry; also called extracellular domain of human FAP with N-terminal His6-tag
T2 sequence: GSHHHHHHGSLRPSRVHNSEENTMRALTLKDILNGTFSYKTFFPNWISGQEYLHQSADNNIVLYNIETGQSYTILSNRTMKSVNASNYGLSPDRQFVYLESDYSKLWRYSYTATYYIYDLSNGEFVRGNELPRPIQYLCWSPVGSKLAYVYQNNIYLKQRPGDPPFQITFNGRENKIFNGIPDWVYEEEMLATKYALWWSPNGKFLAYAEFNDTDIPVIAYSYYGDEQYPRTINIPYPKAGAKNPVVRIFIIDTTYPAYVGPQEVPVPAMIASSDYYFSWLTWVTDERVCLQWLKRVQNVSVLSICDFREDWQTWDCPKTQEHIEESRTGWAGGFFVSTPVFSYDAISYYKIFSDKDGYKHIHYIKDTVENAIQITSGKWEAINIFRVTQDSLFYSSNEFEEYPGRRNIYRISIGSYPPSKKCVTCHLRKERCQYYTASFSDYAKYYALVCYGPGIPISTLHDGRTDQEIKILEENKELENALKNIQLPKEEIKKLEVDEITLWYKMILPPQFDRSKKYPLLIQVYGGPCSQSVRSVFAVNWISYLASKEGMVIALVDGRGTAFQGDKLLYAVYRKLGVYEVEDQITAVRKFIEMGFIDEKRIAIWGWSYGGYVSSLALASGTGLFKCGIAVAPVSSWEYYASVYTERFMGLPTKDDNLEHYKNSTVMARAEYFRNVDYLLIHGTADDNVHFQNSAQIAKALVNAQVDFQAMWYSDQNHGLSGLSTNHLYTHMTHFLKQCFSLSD
Description: as §1

[3] = molecular target: T3, murine FAP recombinant protein (murine, UniProt P97321 26-761); assay: ELISA on coated recombinant protein, VHH-containing bacterial extract, anti-HA detection, signal-to-background ratio
T3 construct: The protein was biotinylated for bio-layer interferometry; also called extracellular domain of murine FAP with N-terminal His6-tag
T3 sequence: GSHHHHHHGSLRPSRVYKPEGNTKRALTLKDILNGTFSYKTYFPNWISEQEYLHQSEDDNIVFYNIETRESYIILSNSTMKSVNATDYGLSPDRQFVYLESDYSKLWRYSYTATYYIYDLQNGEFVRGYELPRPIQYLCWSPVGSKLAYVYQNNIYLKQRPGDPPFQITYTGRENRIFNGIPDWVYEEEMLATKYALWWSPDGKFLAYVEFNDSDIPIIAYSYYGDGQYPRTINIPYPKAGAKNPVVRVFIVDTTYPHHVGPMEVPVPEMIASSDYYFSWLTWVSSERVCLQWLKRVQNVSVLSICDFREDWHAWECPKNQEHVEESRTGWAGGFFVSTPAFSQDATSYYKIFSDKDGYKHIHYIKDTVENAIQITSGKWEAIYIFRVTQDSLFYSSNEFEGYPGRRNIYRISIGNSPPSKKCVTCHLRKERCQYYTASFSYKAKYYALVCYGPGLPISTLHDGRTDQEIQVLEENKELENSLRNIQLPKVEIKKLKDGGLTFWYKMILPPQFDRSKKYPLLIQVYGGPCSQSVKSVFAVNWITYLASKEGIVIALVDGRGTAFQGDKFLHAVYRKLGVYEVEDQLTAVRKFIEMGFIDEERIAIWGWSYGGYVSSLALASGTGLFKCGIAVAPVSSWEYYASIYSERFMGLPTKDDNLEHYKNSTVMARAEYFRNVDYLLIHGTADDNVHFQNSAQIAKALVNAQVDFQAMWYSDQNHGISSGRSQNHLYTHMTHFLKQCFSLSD
Description: as §1

[4] = molecular target: T1, human DPP IV recombinant protein; assay: as above
Description: as §1

[5] = molecular target: T4, murine FAP expressed on cells (murine, UniProt P97321 1-761); assay: flow cytometry on murine FAP-transfected HEK293 cells, VHH-containing bacterial extract, anti-HA and PE-conjugated secondary detection, Δmfi against cells without VHH
T4 construct: also called murine FAP cell surface protein
T4 sequence: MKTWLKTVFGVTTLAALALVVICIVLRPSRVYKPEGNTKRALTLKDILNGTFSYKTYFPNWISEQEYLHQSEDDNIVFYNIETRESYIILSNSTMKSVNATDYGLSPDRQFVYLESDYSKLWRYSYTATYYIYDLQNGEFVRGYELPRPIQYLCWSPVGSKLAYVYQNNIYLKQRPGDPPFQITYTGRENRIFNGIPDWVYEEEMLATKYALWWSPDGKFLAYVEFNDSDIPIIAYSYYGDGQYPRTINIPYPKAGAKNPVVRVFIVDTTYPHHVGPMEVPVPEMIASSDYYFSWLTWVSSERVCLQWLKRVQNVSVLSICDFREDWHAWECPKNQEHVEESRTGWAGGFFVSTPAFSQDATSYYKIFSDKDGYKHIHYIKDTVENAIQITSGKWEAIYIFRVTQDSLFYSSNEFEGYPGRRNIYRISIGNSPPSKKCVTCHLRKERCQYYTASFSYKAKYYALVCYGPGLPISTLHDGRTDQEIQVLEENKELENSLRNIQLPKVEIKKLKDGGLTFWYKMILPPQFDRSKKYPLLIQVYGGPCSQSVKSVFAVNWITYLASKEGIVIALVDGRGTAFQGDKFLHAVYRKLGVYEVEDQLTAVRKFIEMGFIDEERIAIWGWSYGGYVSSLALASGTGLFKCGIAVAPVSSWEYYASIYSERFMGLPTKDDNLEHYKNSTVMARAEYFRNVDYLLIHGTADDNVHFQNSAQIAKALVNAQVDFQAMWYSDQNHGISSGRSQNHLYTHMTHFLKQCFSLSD
Description: The cell binding was tested by flow cytometry experiments. Per test condition 1×10⁵ to 2×10⁵ cells, washed in PBS, 0.5% BSA, were pelleted in the well of a 96-well U-bottom plate. The cell pellets were resuspended and incubated with the VHH-containing bacterial freeze-thaw extracts (diluted in PBS, 0.5% BSA). Binding of HA-His₆-tagged VHHs was detected by using mouse anti-HA.11 epitope tag (clone 16B12, Biolegend) as the primary detection antibody and PE-conjugated rat anti-mouse IgG1 (clone A85-1, BD Pharmingen) as the secondary detection antibody, with washing with PBS, 0.5% BSA in between, and finally resuspended in PBS, 0.5% BSA.
Flow cytometry was performed on a FACS Canto II (BD Biosciences). Data were analyzed using FlowJo software. Based on the forward scatter-side scatter plot a single cell gate was drawn. The median fluorescence intensity was determined on a histogram for the phycoerythrin signal of the single cells. The difference in median fluorescence intensity (A mfi) was calculated relative to a test condition without incubation of VHHs (cells+primary Ab+secondary Ab), and are shown in FIG. 3.

[6] = molecular target: T2, human FAP recombinant protein; assay: bio-layer interferometry, biotinylated human FAP on sensor
Description: The kinetic parameters of antigen binding by purified VHHs were determined via bio-layer interferometry with an Octet RED96 instrument (ForteBio). The assay was performed at 25° C. with shaking at 1000 rpm. Streptavidin coated SA sensors were equilibrated in assay buffer (HBS supplemented with 0.5% BSA, 0.1% Tween), before loading for 5 min with the biotinylated FAP recombinant protein at a concentration of 5 μg/ml. His₆-tagged VHHs were analyzed in a threefold serial dilution from 30 nM to 0.4 nM in assay buffer (except for VHH B3 binding murine FAP recombinant protein, for which a fivefold serial dilution from 1000 nM to 1.6 nM was employed). First the baseline was measured for 180 s in assay buffer, followed by 5 subsequent association phases of 180 s with the VHH preparations in increasing order of concentration, with 75 s intermediate dissociation phases in assay buffer in between, and a final dissociation phase in assay buffer of 30 min. […]
Binding curves were exported and analyzed using the BIAevaluation analysis software (GE Healthcare). […]
(§2) Table 7 gives an overview of the kinetic parameters of antigen binding for His₆-tagged VHHs B1, B2, B3 and B4 (SEQ ID NO: 21-24), as determined by bio-layer interferometry with biotinylated human or murine FAP recombinant protein that was loaded on the sensor.

[7] = molecular target: T2, human FAP recombinant protein; assay: bio-layer interferometry (Octet RED96), biotinylated human FAP on streptavidin sensor, kinetic titration, 25 °C
Description: (§3) The kinetic parameters of antigen binding by purified VHHs were determined via bio-layer interferometry with an Octet RED96 instrument (ForteBio). The assay was performed at 25° C. with shaking at 1000 rpm. Streptavidin coated SA sensors were equilibrated in assay buffer (HBS supplemented with 0.5% BSA, 0.1% Tween), before loading for 5 min with the biotinylated FAP recombinant protein at a concentration of 5 μg/ml. His₆-tagged VHHs were analyzed in a threefold serial dilution from 30 nM to 0.4 nM in assay buffer (except for VHH B3 binding murine FAP recombinant protein, for which a fivefold serial dilution from 1000 nM to 1.6 nM was employed). First the baseline was measured for 180 s in assay buffer, followed by 5 subsequent association phases of 180 s with the VHH preparations in increasing order of concentration, with 75 s intermediate dissociation phases in assay buffer in between, and a final dissociation phase in assay buffer of 30 min. In every assay a reference sensor loaded with FAP recombinant protein was included that was incubated in assay buffer during the association phases.
(§4) Binding curves were exported and analyzed using the BIAevaluation analysis software (GE Healthcare). First the y-axes of the different curves were aligned to the median of the last 5 s of the baseline measurement. Subsequently, the sensorgram of the reference sensor was subtracted from all other sensorgrams. The resulting binding curve was fitted using a general fit with the ‘kinetic titration with drift’ binding model (1:1 (antigen:analyte) model; Karlsson, R. et al (2006), Analyzing a kinetic titration series using affinity biosensors. Analytical Biochemistry 349: 136-147), with Rmax fitted global, RI local and drift set to 0.
as §2

[8] = molecular target: T3, murine FAP recombinant protein; assay: bio-layer interferometry (Octet RED96), biotinylated murine FAP on streptavidin sensor, kinetic titration, 25 °C
Description: as §3, §4, §2

T1 sequence (P27487 29-766): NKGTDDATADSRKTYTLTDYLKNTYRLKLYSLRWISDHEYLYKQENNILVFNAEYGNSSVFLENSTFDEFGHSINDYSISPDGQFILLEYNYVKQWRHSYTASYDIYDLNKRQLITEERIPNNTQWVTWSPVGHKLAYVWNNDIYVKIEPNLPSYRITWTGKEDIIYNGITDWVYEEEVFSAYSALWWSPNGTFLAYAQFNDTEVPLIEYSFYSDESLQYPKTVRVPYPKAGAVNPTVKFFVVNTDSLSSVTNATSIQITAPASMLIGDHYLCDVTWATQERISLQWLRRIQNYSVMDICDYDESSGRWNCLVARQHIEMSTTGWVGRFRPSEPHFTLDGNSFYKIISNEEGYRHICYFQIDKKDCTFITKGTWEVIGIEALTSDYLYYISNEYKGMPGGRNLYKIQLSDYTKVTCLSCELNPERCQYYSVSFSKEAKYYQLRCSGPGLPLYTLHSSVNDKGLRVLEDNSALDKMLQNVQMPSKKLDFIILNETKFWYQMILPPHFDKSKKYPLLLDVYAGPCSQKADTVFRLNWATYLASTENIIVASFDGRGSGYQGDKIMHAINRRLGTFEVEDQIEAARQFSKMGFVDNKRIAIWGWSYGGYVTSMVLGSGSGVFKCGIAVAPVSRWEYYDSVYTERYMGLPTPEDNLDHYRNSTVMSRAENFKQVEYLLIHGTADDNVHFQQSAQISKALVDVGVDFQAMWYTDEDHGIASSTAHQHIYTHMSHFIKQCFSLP

signal-to-background ratio [1]: ~1
signal-to-background ratio [2]: > 25
binding result [3]: no binding
binding result [4]: no binding
binding result [5]: no binding
B1: HA-His6-tagged VHH B3 (VHH)
VHH: QVQLQESGGGLVQAGGSLRLSCAVSGRLFSTNAMGWYRQAPGKQRELVAGITGGDRSNYADSVKGRFTISRDNGKNTLYLQMNSLKPEDTAVYYCNFYPPIVGDYWGQGTQVTVSS
notes: also called B3 with HA-His6-tag

Kd [6]: < 0.05 nM
Kd [7]: 0.0378 nM
koff [7]: 2.7e-05 s⁻¹
kon [7]: 700000 M⁻¹ s⁻¹
Kd [8]: 0.742 nM
koff [8]: 0.0014 s⁻¹
kon [8]: 1.9e+06 M⁻¹ s⁻¹
B2: His6-tagged VHH B1 (VHH)
VHH: DVQLVESGGGLVQPGGSLRLSCVASGRLSSSNSMAWYRQVPGKRRELVAGITGGGETNYADFVGGRFTISRDNAKNGLYLQLNGLKPEDTAAYYCNFWPPLINYWGQGTQVTVSS
notes: Purified, unlabelled; used in bio-layer interferometry; also called B1 with His6-tag
